T1: Invertase (yeast) (Saccharomyces cerevisiae, UniProt P00724)
T1 sequence (P00724 20-532): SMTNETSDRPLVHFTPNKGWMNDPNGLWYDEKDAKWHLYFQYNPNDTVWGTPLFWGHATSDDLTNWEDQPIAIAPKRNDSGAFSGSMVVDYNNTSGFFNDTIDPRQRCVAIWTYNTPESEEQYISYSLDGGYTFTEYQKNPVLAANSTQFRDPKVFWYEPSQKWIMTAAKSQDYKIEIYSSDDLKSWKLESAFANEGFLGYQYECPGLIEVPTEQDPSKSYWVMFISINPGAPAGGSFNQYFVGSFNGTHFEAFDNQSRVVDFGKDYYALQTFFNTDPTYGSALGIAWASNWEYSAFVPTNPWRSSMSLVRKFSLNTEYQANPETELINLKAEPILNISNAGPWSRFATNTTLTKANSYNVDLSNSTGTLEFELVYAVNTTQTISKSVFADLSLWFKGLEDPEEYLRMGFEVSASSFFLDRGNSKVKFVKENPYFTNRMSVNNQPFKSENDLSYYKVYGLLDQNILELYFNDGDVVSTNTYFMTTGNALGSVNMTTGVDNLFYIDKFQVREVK


Tests used:
rabbit erythrocytes = assay: hemagglutinating activity test, rabbit erythrocytes; assay type: cell-based; details: for hemagglutinating activity, titer (1.0 mg/ml): lectin 1.0 mg/ml
Source text: (§1) The sugar binding specificity of lectin also can be confirmed by using erythrocytes that can be specifically agglutinated by the lectin to investigate the sugar type that may inhibit the agglutination of the erythrocytes and the concentration thereof.
(§2) PTL and SRL were subjected to hagglutinating activity test for rabbit, equine, pig, sheep, human (A, B, O), and actinase E-treated rabbit erythrocytes.

[1] = tested on: human (A, B, O) erythrocytes; assay: hemagglutinating activity test, human (A, B, O) erythrocytes; assay type: cell-based; details: for hemagglutinating activity, titer (1.0 mg/ml): lectin 1.0 mg/ml
Source text: as §2

equine erythrocytes = assay: hemagglutinating activity test, equine erythrocytes; assay type: cell-based
Source text: as §1, §2

sheep erythrocytes = assay: hemagglutinating activity test, sheep erythrocytes; assay type: cell-based; details: for hemagglutinating activity, titer (1.0 mg/ml): lectin 1.0 mg/ml
Source text: as §1, §2

pig erythrocytes = assay: hemagglutinating activity test, pig erythrocytes; assay type: cell-based; details: for hemagglutinating activity, titer (1.0 mg/ml): lectin 1.0 mg/ml
Source text: as §1, §2

Invertase (yeast) = molecular target: T1, Invertase (yeast); assay: detection of glycoprotein by Western blotting with biotin-labeled lectin; assay type: binding; parameters: key: ◯: Detected; X: Not detected; details: (6) Invertase (yeast), High mannose-type sugar chain; biotin-labeled lectin 2 μg/ml
Description: (§3) PTL of Example 1, SRL of Example 2, AAL of Comparison Example 1, AOL of Comparison Example 2, and LCA of Comparison Example 3 all subjected to biotin-labeling.
(§4) Lectin was measured and was dissolved in 0.1 M sodium hydrogen carbonate solution (5 mg/ml). Then, a biotinylation reagent was dissolved in dimethyl sulfoxide and the resultant solution was added to lectin solution to cause reaction therebetween. Then, the reactant was […] and lyophilized, thereby obtain biotin-labeled lectin.
(§5) The solution obtained by dissolving the glycoprotein sample in 10 mM phosphate buffered saline (pH 7.4, PBS) at 2 mg/ml was dispensed to a microtube by a unit of 18 μl. 6 μl of SDS process liquid (Sample Buffer Solution (2ME−); Wako Pure Chemical Industries, Ltd.) and 1.25 μl of 2-mercaptoethanol (Bio-Rad Laboratories, Inc.) was added to each dispensed fluid and the resultant mixture was boiled for 5 minutes.
(§6) The film was immersed in 10 mM Tris buffer solution including 0.8% NaCl added with 1% BSA (pH 7.4, 1% BSA+TBS) and was shaken at a room temperature for one hour. Then, the film was cleaned three times by 10 mM Tris buffer solution (pH 7.4, TBS) including 0.8% NaCl. Then, the film was immersed in biotin-labeled lectin solution (2 μg/ml) and was shaken at a room temperature for one hour. Then, the film was cleaned three times by TBS. Then, the film was immersed in the HRP label streptavidin solution at 1 μg/ml (Vector Laboratories) and was shaken at a room temperature for 30 minutes. After the film was cleaned three times by TBS, a POD immunostain set (Wako Pure Chemical Industries, Ltd.) was used to perform a staining test. The staining test is to detect glycoprotein by the western blotting using biotin-labeled lectin. FIG. 13 to FIG. 17 are photographs showing the following glycoproteins stained by PTL (FIG. 13), SRL (FIG. 14), AAL (FIG. 15), AOL (FIG. 16), or LCA (FIG. 17).
(§7) In FIG. 13 to FIG. 17, the lanes 0 to 6 correspond to the followings. Lane 1: thyroglobulin, lane 2: lactoferrin, lane 3: immune immunoglobulin, lane 4: transferrin, lane 5: α1-acidic glycoprotein, lane 6: invertase, lane 0: bovine serum albumin (control)

[2] = tested on: Immune-globulin G (human); assay: as above; assay type: binding; parameters: key: ◯: Detected; X: Not detected; details: (3) Immune-globulin G (human), N-linked glycan having α1→6 L-fucose; biotin-labeled lectin 2 μg/ml
Description: as §3, §4, §5, §6, §7

Thyroglobulin (pig) = Thyroglobulin (pig) (Sus scrofa, UniProt F1RRV3); assay: as above; assay type: binding; parameters: key: ◯: Detected; X: Not detected; details: (1) Thyroglobulin (pig), N-linked glycan having α1→6 L-fucose; biotin-labeled lectin 2 μg/ml
Thyroglobulin (pig), sequence (F1RRV3 20-2692): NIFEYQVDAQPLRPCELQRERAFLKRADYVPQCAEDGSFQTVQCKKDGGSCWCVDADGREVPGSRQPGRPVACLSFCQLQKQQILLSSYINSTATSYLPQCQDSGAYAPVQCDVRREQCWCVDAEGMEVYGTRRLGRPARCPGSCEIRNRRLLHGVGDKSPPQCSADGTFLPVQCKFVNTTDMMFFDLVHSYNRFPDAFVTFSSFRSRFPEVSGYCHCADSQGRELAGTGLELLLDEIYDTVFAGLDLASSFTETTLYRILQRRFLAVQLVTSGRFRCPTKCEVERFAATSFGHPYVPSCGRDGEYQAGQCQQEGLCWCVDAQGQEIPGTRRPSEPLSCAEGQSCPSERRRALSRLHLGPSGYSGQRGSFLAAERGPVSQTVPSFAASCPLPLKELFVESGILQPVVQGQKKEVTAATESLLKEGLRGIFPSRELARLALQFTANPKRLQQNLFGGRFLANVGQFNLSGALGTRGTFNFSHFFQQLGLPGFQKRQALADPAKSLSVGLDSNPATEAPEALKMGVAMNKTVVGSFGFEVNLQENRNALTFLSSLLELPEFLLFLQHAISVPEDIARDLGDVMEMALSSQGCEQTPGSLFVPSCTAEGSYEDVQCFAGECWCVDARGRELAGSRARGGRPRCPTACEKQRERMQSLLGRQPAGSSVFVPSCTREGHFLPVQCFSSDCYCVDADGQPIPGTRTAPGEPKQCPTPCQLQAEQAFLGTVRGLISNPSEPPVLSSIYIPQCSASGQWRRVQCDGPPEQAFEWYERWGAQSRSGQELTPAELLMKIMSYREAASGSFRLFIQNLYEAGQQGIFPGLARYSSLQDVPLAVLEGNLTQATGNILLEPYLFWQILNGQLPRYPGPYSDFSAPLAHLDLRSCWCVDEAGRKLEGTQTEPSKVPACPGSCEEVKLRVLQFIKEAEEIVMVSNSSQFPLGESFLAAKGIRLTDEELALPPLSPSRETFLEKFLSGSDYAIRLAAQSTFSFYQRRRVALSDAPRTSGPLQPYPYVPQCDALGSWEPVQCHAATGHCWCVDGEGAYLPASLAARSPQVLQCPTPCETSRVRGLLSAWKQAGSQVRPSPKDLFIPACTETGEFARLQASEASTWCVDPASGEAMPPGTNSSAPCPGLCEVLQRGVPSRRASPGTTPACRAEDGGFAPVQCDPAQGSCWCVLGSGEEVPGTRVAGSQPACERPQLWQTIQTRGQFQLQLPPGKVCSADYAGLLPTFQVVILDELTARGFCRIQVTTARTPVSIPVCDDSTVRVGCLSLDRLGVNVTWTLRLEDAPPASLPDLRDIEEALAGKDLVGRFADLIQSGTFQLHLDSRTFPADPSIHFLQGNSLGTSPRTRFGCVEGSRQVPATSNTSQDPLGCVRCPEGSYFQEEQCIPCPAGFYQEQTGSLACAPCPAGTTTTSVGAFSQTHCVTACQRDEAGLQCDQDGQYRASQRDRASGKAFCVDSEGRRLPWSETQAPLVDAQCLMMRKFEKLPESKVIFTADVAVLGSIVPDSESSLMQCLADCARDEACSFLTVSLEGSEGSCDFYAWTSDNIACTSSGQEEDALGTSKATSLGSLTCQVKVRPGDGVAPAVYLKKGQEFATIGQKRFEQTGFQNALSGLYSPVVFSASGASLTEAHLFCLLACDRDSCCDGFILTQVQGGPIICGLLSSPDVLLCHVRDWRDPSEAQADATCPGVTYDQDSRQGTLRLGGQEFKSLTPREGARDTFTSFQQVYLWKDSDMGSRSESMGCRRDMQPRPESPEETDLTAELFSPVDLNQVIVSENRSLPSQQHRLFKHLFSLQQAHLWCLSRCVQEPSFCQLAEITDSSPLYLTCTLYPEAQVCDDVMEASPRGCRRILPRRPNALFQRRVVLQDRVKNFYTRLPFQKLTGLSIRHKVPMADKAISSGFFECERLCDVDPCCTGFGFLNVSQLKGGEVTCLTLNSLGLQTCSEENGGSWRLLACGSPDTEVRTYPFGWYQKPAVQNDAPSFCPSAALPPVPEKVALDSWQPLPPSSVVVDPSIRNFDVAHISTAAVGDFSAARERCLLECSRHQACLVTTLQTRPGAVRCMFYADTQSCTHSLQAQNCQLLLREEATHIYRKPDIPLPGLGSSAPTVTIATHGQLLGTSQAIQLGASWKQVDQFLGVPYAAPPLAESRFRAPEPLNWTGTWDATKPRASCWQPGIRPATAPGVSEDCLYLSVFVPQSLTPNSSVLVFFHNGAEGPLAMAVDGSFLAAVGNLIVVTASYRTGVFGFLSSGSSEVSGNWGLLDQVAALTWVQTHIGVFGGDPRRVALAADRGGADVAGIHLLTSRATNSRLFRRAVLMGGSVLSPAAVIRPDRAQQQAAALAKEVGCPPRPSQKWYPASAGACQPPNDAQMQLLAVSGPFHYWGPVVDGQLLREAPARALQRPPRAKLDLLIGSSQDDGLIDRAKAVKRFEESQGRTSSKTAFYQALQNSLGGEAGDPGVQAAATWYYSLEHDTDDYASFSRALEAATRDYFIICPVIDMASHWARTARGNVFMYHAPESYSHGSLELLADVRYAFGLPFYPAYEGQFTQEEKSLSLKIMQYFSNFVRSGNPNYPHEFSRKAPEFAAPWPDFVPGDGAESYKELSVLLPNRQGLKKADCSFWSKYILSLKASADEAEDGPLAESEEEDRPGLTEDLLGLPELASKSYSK
Description: as §3, §4, §5, §6, §7

[3] = tested on: α1-acidic glycoprotein (human); assay: as above; assay type: binding; parameters: key: ◯: Detected; X: Not detected; details: (5) α1-acidic glycoprotein (human), N-linked glycan having α1→3 L-fucose; biotin-labeled lectin 2 μg/ml
Description: as §3, §4, §5, §6, §7

Transferrin (human) = Transferrin (human) (Homo sapiens, UniProt P02787); assay: as above; assay type: binding; parameters: key: ◯: Detected; X: Not detected; details: (4) Transferrin (human), N-linked glycan not including α1→6 L-fucose; biotin-labeled lectin 2 μg/ml
Transferrin (human), sequence (P02787 20-698): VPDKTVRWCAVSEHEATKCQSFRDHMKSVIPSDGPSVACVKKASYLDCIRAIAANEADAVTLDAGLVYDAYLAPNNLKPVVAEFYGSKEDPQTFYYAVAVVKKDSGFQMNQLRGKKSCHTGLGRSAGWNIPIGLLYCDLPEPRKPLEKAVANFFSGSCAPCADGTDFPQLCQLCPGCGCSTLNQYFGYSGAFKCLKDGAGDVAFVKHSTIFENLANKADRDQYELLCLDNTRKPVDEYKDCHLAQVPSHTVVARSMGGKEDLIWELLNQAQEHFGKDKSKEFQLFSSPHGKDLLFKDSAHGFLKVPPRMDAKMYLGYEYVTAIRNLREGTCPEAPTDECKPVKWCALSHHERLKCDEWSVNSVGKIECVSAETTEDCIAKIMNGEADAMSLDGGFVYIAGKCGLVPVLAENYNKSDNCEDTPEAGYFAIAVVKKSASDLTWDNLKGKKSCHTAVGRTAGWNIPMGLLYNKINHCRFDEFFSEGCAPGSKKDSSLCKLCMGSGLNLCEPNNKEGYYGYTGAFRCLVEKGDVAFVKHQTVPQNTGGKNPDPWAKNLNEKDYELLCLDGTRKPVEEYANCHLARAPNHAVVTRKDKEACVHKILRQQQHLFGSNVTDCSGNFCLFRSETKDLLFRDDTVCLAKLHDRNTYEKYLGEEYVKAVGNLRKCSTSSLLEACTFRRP
Description: as §3, §4, §5, §6, §7

[4] = molecular target: Blood serum albumin (bovine) (Bos taurus, UniProt P02769); assay: as above; assay type: binding; parameters: key: ◯: Detected; X: Not detected; details: (O) Blood serum albumin (bovine), No sugar chain; biotin-labeled lectin 2 μg/ml
Blood serum albumin (bovine), sequence (P02769 25-607): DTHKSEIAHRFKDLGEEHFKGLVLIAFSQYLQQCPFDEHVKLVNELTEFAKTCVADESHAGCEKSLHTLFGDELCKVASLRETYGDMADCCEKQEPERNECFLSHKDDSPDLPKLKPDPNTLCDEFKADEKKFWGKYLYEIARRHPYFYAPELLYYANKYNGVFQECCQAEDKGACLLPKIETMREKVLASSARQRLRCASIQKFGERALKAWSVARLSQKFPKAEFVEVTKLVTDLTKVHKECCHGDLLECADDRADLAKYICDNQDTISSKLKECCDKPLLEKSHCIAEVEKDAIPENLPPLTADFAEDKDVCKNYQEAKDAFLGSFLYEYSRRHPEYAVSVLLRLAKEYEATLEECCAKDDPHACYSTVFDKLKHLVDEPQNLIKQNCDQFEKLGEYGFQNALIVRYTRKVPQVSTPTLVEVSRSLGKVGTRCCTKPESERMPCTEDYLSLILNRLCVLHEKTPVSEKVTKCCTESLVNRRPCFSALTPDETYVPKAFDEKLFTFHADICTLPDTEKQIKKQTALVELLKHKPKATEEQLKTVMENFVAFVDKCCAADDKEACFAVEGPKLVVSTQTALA
Description: as §3, §4, §5, §6, §7

Lactoferrin (bovine) = Lactoferrin (bovine) (Bos taurus, UniProt P24627); assay: as above; assay type: binding; parameters: key: ◯: Detected; X: Not detected; details: (2) Lactoferrin (bovine), N-linked glycan having α1→6 L-fucose; biotin-labeled lectin 2 μg/ml
Lactoferrin (bovine), sequence (P24627 20-708): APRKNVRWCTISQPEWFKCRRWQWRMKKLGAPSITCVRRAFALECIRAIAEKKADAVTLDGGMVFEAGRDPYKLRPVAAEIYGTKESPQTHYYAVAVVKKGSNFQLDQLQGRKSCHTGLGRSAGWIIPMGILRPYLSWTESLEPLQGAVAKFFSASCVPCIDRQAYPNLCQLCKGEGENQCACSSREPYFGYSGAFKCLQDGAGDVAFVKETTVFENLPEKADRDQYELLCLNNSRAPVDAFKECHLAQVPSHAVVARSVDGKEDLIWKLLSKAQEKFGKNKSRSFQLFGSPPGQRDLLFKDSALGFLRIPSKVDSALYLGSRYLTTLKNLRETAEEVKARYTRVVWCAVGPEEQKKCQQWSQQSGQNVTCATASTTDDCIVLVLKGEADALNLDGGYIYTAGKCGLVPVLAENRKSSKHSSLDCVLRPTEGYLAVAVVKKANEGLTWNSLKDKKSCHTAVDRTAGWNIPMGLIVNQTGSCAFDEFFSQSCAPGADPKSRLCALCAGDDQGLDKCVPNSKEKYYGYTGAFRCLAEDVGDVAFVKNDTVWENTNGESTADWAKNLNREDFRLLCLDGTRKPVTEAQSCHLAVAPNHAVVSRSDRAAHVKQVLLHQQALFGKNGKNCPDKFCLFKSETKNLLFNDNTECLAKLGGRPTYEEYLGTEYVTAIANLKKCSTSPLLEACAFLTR
Description: as §3, §4, §5, §6, §7

[5] = tested on: actinase E-treated rabbit erythrocytes; assay: hemagglutinating activity test, actinase E-treated rabbit erythrocytes; assay type: cell-based; details: for hemagglutinating activity, titer (1.0 mg/ml): lectin 1.0 mg/ml
Source text: as §1, §2

| Molecule | Minimum hemagglutinating concentration (rabbit erythrocytes) [µg/mL] | hemagglutinating activity, titer (1.0 mg/ml) (rabbit erythrocytes) [titer] | Minimum hemagglutinating concentration ([1]; Human A erythrocytes) [µg/mL] | hemagglutinating activity, titer (1.0 mg/ml) ([1]; Human A erythrocytes) [titer] | Minimum hemagglutinating concentration ([1]; Human B erythrocytes) [µg/mL] | hemagglutinating activity, titer (1.0 mg/ml) ([1]; Human B erythrocytes) [titer] | Minimum hemagglutinating concentration ([1]; Human O erythrocytes) [µg/mL] | hemagglutinating activity, titer (1.0 mg/ml) ([1]; Human O erythrocytes) [titer] | Minimum hemagglutinating concentration (sheep erythrocytes) [µg/mL] | hemagglutinating activity, titer (1.0 mg/ml) (sheep erythrocytes) [titer] | Minimum hemagglutinating concentration (pig erythrocytes) [µg/mL] | hemagglutinating activity, titer (1.0 mg/ml) (pig erythrocytes) [titer] | detection of glycoprotein by Western blotting (Invertase (yeast)) | detection of glycoprotein by Western blotting [2] | detection of glycoprotein by Western blotting (Thyroglobulin (pig)) | detection of glycoprotein by Western blotting [3] | detection of glycoprotein by Western blotting (Transferrin (human)) | detection of glycoprotein by Western blotting [4] | detection of glycoprotein by Western blotting (Lactoferrin (bovine)) | Minimum hemagglutinating concentration [5] [µg/mL] | other results |
| --- | --- | --- | --- | --- | --- | --- | --- | --- | --- | --- | --- | --- | --- | --- | --- | --- | --- | --- | --- | --- | --- |
| Stropharia rugosoannulata lectin [SRL, novel L-fucose α1→6 specific lectin purified from the mushroom Stropharia rugosoannulata] | 5.21 | 64 | >333 | <1 | >333 | <1 | >333 | <1 | >333 | <1 | 10.4 | 32 | X | ◯ | ◯ | X | X | X | ◯ | 0.651 | Minimum hemagglutinating concentration (equine erythrocytes): 2.61 µg/mL; hemagglutinating activity, titer (1.0 mg/ml) (equine erythrocytes; lectin 1.0 mg/ml): 128 titer; hemagglutinating activity, titer (1.0 mg/ml) [5]: 512 titer |
| Aspergillus oryzae lectin [AOL, reference compound] | – | – | – | – | – | – | – | – | – | – | – | – | X | ◯ | ◯ | X | X | X | ◯ | – | – |
| Pholiota terrestris lectin [PTL, novel L-fucose α1→6 specific lectin purified from the mushroom Pholiota terrestris] | 5.21 | 64 | >333 | <1 | >333 | <1 | >333 | <1 | >333 | <1 | 20.8 | 16 | X | ◯ | ◯ | X | X | X | ◯ | 0.13 | hemagglutinating activity, titer (1.0 mg/ml) [5]: 2560 titer |
| Aleuria aurantia lectin (protein) PTEFLYTSKIAAISWAATGGRQQRVYFQDLNGKIREAQRGGDNPWTGGSSQNVIGEAKLFSPLAAVTWKSAQGIQIRVYCVNKDNILSEFVYDGSKWITGQLGSVGVKVGSNSKLAALQWGGSESAPPNIRVYYQKSNGSGSSIHEYVWSGKWTAGASFGSTVPGTGIGATAIGPGRLRIYYQATDNKIREHCWDSNSWYVGGFSASASAGVSIAAISWGSTPNIRVYWQKGREELYEAAYGGSWNTPGQIKDASRPTPSLPDTFIAANSSGNIDISVFFQASGVSLQQWQWISGKGWSIGAVVPTGTPAGW | – | – | – | – | – | – | – | – | – | – | – | – | X | ◯ | ◯ | X | X | X | ◯ | – | – |
| Lens culinaris agglutinin (protein) chain 1: TETTSFSITKFSPDQKNLIFQGDGYTTKGKLTLTKAVKSTVGRALYSTPIHIWDRDTGNVANFVTSFTFVIDAPSSYNVADEFTFFIAPVDTKPQTGGGYLGVFNSKEYDKTSQTVAVEFDTFYNAAWDPSNKERHIGIDVNSIKSVNTKSWNLQNGERANVVIAFNAATNVLTVTLTYP chain 2: VTSYTLNEVVPLKDVVPEWVRIGFSATTGAEFAAHEVHSWSFHSELGGTSSS | – | – | – | – | – | – | – | – | – | – | – | – | ◯ | ◯ | ◯ | X | X | X | ◯ | – | – |

From patent US8461305B2, “L-fucose α1→6 specific lectin” (J-Oil Mills, Inc., priority 2008, dated 2013)
